B1: CPEB3 Ribozyme (parent)
chain: GGGGGCCACAGCAGAAGCGUUCACGUCGCGGCCCCUGUCAGAUUCUGGUGAAUCUGCGAAUUCUGCUGU

Variants of: B1
Assay: self-cleavage, relative activity (ratio to wild type); higher = more cleavage; co-transcriptional

Row | Variant | self-cleavage
1 | C7A A10G | 0.865
2 | C7G U43A | 0.274
3 | C7G U43G | 0.29
4 | C7G U49G | 0.469
5 | C7A C66G | 0.42
6 | C7A C66U | 0.697
7 | C7A C66A | 0.354
8 | C6U U64G | 0.92
9 | C6U U64A | 0.853
10 | C6U U64C | 0.829
11 | C7G A52U | 0.301
12 | C7G A52C | 0.42
13 | C7A A51G | 0.514
14 | C7A A51C | 0.477
15 | C6U G50A | 0.982
16 | C7G G28U | 0.0797
17 | C7G U61A | 0.159
18 | C7G U61G | 0.172
19 | C7G U61C | 0.175
20 | C6U U20G | 0.174
21 | C6U C57U | 0.363
22 | C6U C57A | 0.362
23 | C6U C57G | 0.266
24 | C7G C57G | 0.189

Row | Variant | self-cleavage
25 | C7G C57U | 0.158
26 | C7A C34G | 0.136
27 | C7A C34U | 0.487
28 | C7A C34A | 0.106
29 | C6U G41A | 0.815
30 | C6U G41C | 0.708
31 | C7A U43C | 0.388
32 | C6U U44C | 0.933
33 | C6U U44A | 0.887
34 | C7G U20G | 0
35 | C7G U20C | 0.143
36 | C7G U20A | 0.163
37 | C7A G41C | 0.146
38 | C6U C54G | 0.733
39 | C6U C54A | 0.847
40 | C6U G17A | 0.315
41 | C6U G17C | 0.0825
42 | C7A A40U | 0.147
43 | C7A A40C | 0.15
44 | C7G G14C | 0.0631
45 | C7G G14U | 0.0864
46 | C6U C33U | 0.863
47 | C7G C45G | 0.295
48 | C7G C45U | 0.425

Row | Variant | self-cleavage
49 | C7G C45A | 0.378
50 | C7A A52C | 0.412
51 | C7A A52U | 0.466
52 | C7A C27A | 0.0789
53 | C7A C27U | 0.142
54 | C7A C27G | 0.133
55 | C6U G28C | 0.0878
56 | C6U G28A | 0.0973
57 | C7G U44G | 0.252
58 | C7G U44A | 0.28
59 | C7G U44C | 0.282
60 | C7G G25U | 0.0759
61 | C7G G25C | 0.0905
62 | C7G C32G | 0.106
63 | C7G C32U | 0.177
64 | C7G C39U | 0.326
65 | C7G C39A | 0.141
66 | C7G C39G | 0.236
67 | C7G A8G | 0.346
68 | C7G A8U | 0.614
69 | C7G A8C | 0.514
70 | C7G G58U | 0.528
71 | C7G G58C | 0.285
72 | C7G G31C | 0.101

Row | Variant | self-cleavage
73 | C7G G31U | 0.521
74 | C7G G31A | 0.45
75 | C7A G14C | 0.137
76 | C7A G14A | 0.167
77 | C7A G14U | 0.131
78 | C6U G14A | 0.672
79 | C7G G56A | 0.333
80 | C7G G56C | 0.211
81 | C7A G58A | 0.338
82 | C7A G58U | 0.645
83 | C7A U64A | 0.359
84 | C7A U64G | 0.355
85 | C6U G65U | 0.719
86 | C6U G65C | 0.636
87 | C7A U21G | 0.077
88 | C7A U21C | 0.266
89 | C7A U21A | 0.576
90 | C7A G11A | 0.401
91 | C7A G11U | 0.315
92 | C7A U67C | 0.807
93 | C6U G25C | 0.13
94 | C7A U53G | 0.177
95 | C6U U36G | 0.127
96 | C6U U36A | 0.221

Row | Variant | self-cleavage
97 | C7G G11A | 0.281
98 | C7G U21C | 0.173
99 | C7A C18A | 0.0823
100 | C6U G30A | 0.632
101 | C6U G30U | 0.235
102 | C6U G30C | 0.348
103 | C7G G48A | 0.457
104 | C7G G48U | 0.548
105 | C7G G47A | 0.452
106 | C7G C35G | 0.0899
107 | C7G C35U | 0.248
108 | C7G C66U | 0.459
109 | C7G C66G | 0.176
110 | C7G C66A | 0.134
111 | C7A G65A | 0.496
112 | C7A G65U | 0.198
113 | C7A G65C | 0.314
114 | C7G A60U | 0.187
115 | C7G A60G | 0.175
116 | C6U C29G | 0.259
117 | C6U U55A | 0.989
118 | C6U U55C | 0.775
119 | C6U U55G | 0.888
120 | C7A G48A | 0.67

Row | Variant | self-cleavage
121 | C7A G48U | 0.696
122 | C6U G19C | 0.124
123 | C6U G19A | 0.117
124 | C6U G31C | 0.536
125 | C6U G31U | 0.914
126 | C7A C32G | 0.126
127 | C7A C32U | 0.359
128 | C6U G68U | 1.02
129 | C6U G68A | 1.03
130 | C6U G68C | 0.999
131 | C7A U49A | 0.601
132 | C7A U49G | 0.409
133 | C7A U49C | 0.601
134 | C6U C66A | 0.881
135 | C6U C66G | 0.939
136 | C6U C66U | 0.991
137 | C6U G56C | 0.772
138 | C6U G56U | 0.968
139 | C7G C54G | 0.17
140 | C7G C54A | 0.138
141 | C7G C54U | 0.507
142 | C7A | 0.643
143 | C7G | 0.497
144 | C7G A16U | 0.0326

Row | Variant | self-cleavage
145 | C7G A16G | 0.329
146 | C7G A16C | 0.0882
147 | C7G C9A | 0.898
148 | C7G C9G | 0.966
149 | C7A G25C | 0.144
150 | C7A G25A | 0.163
151 | C7A G25U | 0.111
152 | C6U C45U | 1
153 | C6U C45A | 1.02
154 | C6U C45G | 1.02
155 | C6U C63G | 0.808
156 | C6U C63U | 1.01
157 | C7G C24G | 0.0776
158 | C7G C24U | 0.107
159 | C7G U26C | 0.247
160 | C7G G41U | 0.121
161 | C7G G65U | 0.217
162 | C7G G65C | 0.126
163 | C7G G65A | 0.162
164 | C7A A23G | 0.421
165 | C7A A23U | 0.824
166 | C7A A15G | 0.457
167 | C7A A15C | 0.162

— the RNAGym collection of RNA variant scans (doi:10.7554/elife.80360)
